Measurements as given in publication PMC3601957, “Structural Basis of Rap Phosphatase Inhibition by Phr Peptides” (PLoS Biology, 2013).

Legend:
[1] = molecular target: T1, RapF (Bacillus subtilis, UniProt P71002); test: Thermal-shift peptide binding assay, wild-type RapF; design: species or system B. subtilis; settings: peptide 1 mM, PhrA and PhrE: unpublished data
T1 construct: 6xHis (N, cleaved yes); made in house; host or cells: Escherichia coli BL21 RIL
T1 sequence (P71002 whole entry, looked up): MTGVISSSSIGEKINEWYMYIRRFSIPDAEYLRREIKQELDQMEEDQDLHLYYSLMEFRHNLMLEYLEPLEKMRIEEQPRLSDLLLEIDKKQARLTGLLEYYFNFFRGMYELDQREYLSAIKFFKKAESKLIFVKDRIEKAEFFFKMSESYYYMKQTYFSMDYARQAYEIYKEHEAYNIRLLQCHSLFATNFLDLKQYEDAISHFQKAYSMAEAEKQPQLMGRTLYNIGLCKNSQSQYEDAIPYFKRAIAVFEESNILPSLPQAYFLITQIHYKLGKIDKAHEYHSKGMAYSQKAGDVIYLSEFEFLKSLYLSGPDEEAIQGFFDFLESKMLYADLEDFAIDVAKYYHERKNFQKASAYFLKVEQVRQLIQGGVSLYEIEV
Protocol: The thermal-shift assay was conducted in a 7500 Fast Real-time PCR System (Applied Biosystems). Final melt conditions were 20 mM Tris-HCl (pH 8), 100 mM NaCl, 20 µM RapF, and 5× SYPRO Orange (Sigma-Aldrich). The final concentration of the inhibitory peptides was 1 mM when they were present. The assays were carried out at a final volume of 20 µl in 96-well PCR plates. Samples were heated at 1°C/min. Fluorescent intensity was plotted versus temperature and integrated with the GraphPad Prism 4 software using a Boltzmann model to calculate melting temperatures.

[2] = molecular target: T1, RapF; test: Limited proteolysis with trypsin, wild-type RapF; type: biochemical, B. subtilis; settings: wild-type RapF 1.5 mg/ml, peptide 1 mM, trypsin 1:10,000, 37°C, 0-90 min, SDS-PAGE / native PAGE (60 min); PhrA and PhrE: unpublished data
Protocol: Wild-type RapF and mutant variants (RapF^E303K, RapF^E303A, RapF^N227A, and RapF^D194A) at a concentration of 1.5 mg/ml were pre-incubated in lysis buffer (10 mM Tris-HCl [pH 8], 0.1 mM EDTA, 1 mM β-mercaptoethanol, 100 mM NaCl, 5% glycerol, and 5 mM CaCl2) in the presence (1 mM) or absence of inhibitory peptides at room temperature for 30 min. The protein was subjected to proteolysis by trypsin (1∶10,000) at 37°C and aliquots of the reaction mixture were taken after 0, 10, 30, and 90 min of incubation, mixed with SDS–PAGE loading buffer and immediately boiled to stop the enzyme reaction. Samples were then separated on 12% acrylamide SDS–PAGE and stained with Coomassie brilliant blue. For the peptide titration experiments, RapF was incubated in lysis buffer with increasing concentrations of PhrF at room temperature for 30 min and subjected to limited proteolysis with trypsin(1∶10,000) at 37°C for 60 min. The reactions were stopped SDS–PAGE loading buffer and analyzed by SDS–PAGE.

[3] = tested on: RapA; settings: cited from earlier work
Description: The RNPP family of Gram-positive quorum sensors presents a characteristic C-terminal TPR domain with seven TPR repeats for the structurally known Raps (RapF and RapH) (Figures 1E and S3),[31]. The RapF TPR domain folded in a large superhelix to generate a pseudo circular structure that was closed in a wide channel (8,588 Å^3, calculated by the CASTp software) by the interaction of the terminal part of TPR7 (and the following C-terminal tail) with the initial part of TPR1 (Figure 1). As a channel, the generated ring-like structure was open on both faces (Figures S4, upper panel) ... || Peptide anchoring should be independent of its sequence. Thus, it is primarily mediated by interactions with the peptide main chain. These interactions are mainly polar in nature and involve the side chain hydrogen bonds and salt bridges of Tyr66, Tyr152, Gln183, Arg223, Asn227, Gln263, and Asp338 with the PhrF backbone (Figure 2). Additionally, the conserved Arg at position 2 of the Phr peptides is anchored by a salt bridge with the side chain of a conserved Asp residue (Asp194 in RapF) from TPR3 (Figure 2). […] The conserved asparagine in the RNPP family (Asn227 in RapF) interacts with the PhrF backbone and supports the key role of this residue in peptide accommodation.

[4] = molecular target: T2, RapF^N227A (B. subtilis, UniProt P71002 1-381, N227A)
T2 sequence: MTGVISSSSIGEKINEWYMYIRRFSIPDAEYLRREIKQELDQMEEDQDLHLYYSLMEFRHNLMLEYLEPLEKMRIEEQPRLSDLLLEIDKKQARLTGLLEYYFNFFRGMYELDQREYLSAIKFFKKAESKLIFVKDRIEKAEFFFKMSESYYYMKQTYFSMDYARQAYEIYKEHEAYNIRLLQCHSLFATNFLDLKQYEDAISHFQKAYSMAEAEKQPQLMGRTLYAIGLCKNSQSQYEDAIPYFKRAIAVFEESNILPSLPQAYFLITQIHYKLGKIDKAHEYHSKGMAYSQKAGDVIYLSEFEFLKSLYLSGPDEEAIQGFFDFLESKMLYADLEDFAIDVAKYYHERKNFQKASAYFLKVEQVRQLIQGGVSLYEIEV

[5] = molecular target: T3, RapF^D194A (B. subtilis, UniProt P71002 1-381, D194A)
T3 sequence: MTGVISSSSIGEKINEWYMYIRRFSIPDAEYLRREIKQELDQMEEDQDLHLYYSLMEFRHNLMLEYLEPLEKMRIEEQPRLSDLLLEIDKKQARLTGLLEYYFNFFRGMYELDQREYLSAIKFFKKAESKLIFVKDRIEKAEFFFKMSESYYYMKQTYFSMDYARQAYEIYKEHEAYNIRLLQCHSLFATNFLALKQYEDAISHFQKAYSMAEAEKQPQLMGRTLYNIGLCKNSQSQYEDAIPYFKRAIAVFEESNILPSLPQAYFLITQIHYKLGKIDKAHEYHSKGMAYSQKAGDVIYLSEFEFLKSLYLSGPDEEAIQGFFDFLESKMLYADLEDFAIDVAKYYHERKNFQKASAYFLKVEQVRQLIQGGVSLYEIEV

[6] = molecular target: T4, RapF^E303A (B. subtilis, UniProt P71002 1-381, E303A); test: native gel or EMSA; titration on 8% native gel; 20 µg protein, peptide 50 nM to 1.2 mM in 20 µl buffer A, 15 min at room temperature; midpoint of the transition taken as the apparent Kd; settings: both partners purified
T4 construct: RapF of Bacillus subtilis with Glu303 changed to Ala, made from pPROEX-RapF by site-directed mutagenesis; Same construct as m1 with the point mutation; also called RapF Glu303Ala; source: E. coli BL21 RIL, purified as native RapF; not shown: His6, N-terminal, cleaved
T4 sequence: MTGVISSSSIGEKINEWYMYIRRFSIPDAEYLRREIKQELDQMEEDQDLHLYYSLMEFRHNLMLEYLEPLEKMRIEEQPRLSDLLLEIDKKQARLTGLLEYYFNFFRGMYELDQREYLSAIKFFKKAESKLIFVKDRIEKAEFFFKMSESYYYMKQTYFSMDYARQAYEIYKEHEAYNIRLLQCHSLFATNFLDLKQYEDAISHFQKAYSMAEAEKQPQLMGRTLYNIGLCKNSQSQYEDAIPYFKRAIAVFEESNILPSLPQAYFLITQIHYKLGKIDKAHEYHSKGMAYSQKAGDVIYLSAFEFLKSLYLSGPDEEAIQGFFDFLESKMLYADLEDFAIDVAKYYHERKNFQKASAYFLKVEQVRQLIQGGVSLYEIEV

[7] = molecular target: T5, RapF^E303K (B. subtilis, UniProt P71002 1-381, E303K); test: as above; settings: both partners purified
T5 construct: RapF of Bacillus subtilis with Glu303 changed to Lys, made from pPROEX-RapF by site-directed mutagenesis; Same construct as m1 with the point mutation; also called RapF Glu303Lys; source: E. coli BL21 RIL, purified as native RapF; not shown: His6, N-terminal, cleaved
T5 sequence: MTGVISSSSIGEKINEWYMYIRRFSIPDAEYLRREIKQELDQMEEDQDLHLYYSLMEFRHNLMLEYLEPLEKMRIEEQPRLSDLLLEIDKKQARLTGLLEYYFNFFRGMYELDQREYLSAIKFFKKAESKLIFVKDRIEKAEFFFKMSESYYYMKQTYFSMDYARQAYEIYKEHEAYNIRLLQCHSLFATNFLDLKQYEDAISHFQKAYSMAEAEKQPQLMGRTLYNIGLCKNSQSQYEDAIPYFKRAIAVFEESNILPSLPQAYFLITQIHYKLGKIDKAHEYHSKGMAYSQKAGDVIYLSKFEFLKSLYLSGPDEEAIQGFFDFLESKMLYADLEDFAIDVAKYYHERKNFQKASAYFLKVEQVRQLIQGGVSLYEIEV

[8] = molecular target: T6, RapF (B. subtilis, UniProt P71002 1-381); test: as above; settings: both partners purified
T6 construct: RapF of Bacillus subtilis, amplified from genomic DNA and cloned in pPROEX-HTa; The text speaks of residues up to Val381, which fits the whole protein; also called wild-type RapF; native RapF; source: E. coli BL21 RIL, purified (HisTrap, TEV digestion, Superdex 200); not shown: His6, N-terminal, cleaved
T6 sequence: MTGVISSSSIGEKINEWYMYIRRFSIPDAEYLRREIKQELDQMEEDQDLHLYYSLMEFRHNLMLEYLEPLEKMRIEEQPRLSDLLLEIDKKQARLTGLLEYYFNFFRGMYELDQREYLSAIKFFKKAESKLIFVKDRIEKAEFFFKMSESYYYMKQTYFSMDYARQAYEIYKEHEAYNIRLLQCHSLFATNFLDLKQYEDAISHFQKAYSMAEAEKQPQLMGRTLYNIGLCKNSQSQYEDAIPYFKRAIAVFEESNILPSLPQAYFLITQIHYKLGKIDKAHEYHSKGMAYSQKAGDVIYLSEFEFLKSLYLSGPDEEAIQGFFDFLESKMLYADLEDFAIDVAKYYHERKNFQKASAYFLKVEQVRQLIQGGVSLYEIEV

[9] = molecular target: T6, RapF; test: thermal-shift assay (SYPRO Orange); 20 µM RapF, peptides 1 mM; 20 mM Tris-HCl pH 8, 100 mM NaCl; heated at 1°C/min; settings: both partners purified

Molecule: PhrE: PhrE, non RapF partner peptide (SRNVT)
- thermal stabilization by peptide [1]: presented identical melting transitions to those observed in the absence of peptide
- protection of RapF against trypsin digestion [2]: did not protect against trypsin attack

Molecule: PhrA: PhrA, inhibitor peptide of RapA; non RapF partner peptide (ARNQT)
- thermal stabilization by peptide [1]: presented identical melting transitions to those observed in the absence of peptide
- protection of RapF against trypsin digestion [2]: did not protect against trypsin attack
- sensitivity of RapA Asp192 and His260 mutants to peptide ([3]; RapA Asp192 and His260 mutants, Spo0F∼P dephosphorylation unaffected): insensitive to the inhibitory activity of PhrA
- binding to RapA Tyr224 or His260 to alanine mutants ([3]; RapA Tyr224Ala or His260Ala, no effect on enzymatic activity): completely abolishes the capacity to bind PhrA
- binding to RapA mutant, Asn to Ala (position of RapF Asn227) ([3]; RapA mutant, intact capacity to bind Spo0F): impaired capacity to bind the PhrA peptide
- requirement for inhibition of RapA [3]: requirement of the free terminal carboxylate group
- sensitivity of RapA mutants at positions of RapF Tyr226 and Leu230 ([3]; functional RapA variants): completely insensitive to the PhrA peptide

B1: PhrF (peptide)
peptide: QRGMI
notes: mature active form of the PhrF precursor; The purchase from Genescript is stated for the crystallisation; no other source is named; also called PhrF peptide; source: bought: Genescript
- Kd [4]: > 1200 µM
- Kd [5]: > 1200 µM
- Kd [6]: 29 µM
- Kd [7]: 13.2 µM
- Kd [8]: 3.1 µM
- increment in the melting temperature of RapF with PhrF [9]: ~20 °C

B2: PhrC (peptide)
peptide: ERGMT
notes: mature active form of the PhrC precursor; also called PhrC peptide; RapC (PhrC) peptide
- Kd [7]: 19.6 µM
